The nature of this series: yeast display, Sf9 membrane polyspecificity reagent, FACS + sequencing; frameworks hold sequencing errors. The gist of the method:
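Galactose-induced (36–48 hours) yeast carrying a synthetic nanobody display library were exposed to 10% biotinylated, detergent-solubilized Sf9 membrane reagent at 4 °C for 1 hour. FACS followed streptavidin microbead enrichment, using low and high (top ~1%) gates for expression (anti-HA) and reagent binding (streptavidin). Colony PCR, MiSeq 2 × 250 sequencing and CDR-length filtering followed. Labels for polyreactivity reflect the gate of origin.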
With “QFQLVESGGGLVQAGGRLRLSCAASRSTFVLYDMGWYRQAPGKERELVAAISRSGDSTYYADSVKGRYTISRDNAKNTVYLQMNSLKPEDTAVYYCAAKRRISTGMDYWGQGTQVTVSS”, the “polyreactivity (PSR sort gate)” value is “high polyreactivity”. The result for “QFQLVESGGGLVQAGGSLRLSCAASGFIFSNNAMGWYRQAPGKDRELVAAISKSGGGTSYADSVKGRFTISRDNAKNTVYLQMNSLKPDDTAVYYCAKEWRKKTDYDYWGQGTQVTVSS” reads “high polyreactivity”; that for “QFQLVESGGGLVQAGGSLRLSCAASGFIFYKYAMGGYRQAPGKERELVAAISSGGSPYYADSVKGRFTISRDNAKNTVYLQMNSLKPEDTAVYYCNKVYRSYRSGFYGGDYWGQGTQVTVSS”, “high polyreactivity”.

Regarding “QFQLVESGGGLVQAGGSLRLSCAASGFIIKFYAMGLYRQAPGKERELVATITFSSGTTYYADSVKGRFTISRDTAKNTVYLQLNSLKPEDTAVYYCAAERGVDDSARNGDYDYWGQGTQVTVSS”, the “polyreactivity (PSR sort gate)” value is reported as “low polyreactivity”. The value for “QFQLVESGGGLVQAGGSLRLSCAASGFTFDFYAMGWYRQAPGKERELVAAISKNDGTTYYADSVKGRFTISRDNAKNTVYLQMNSLKQEDTAVYYCAAPNWRDYYSSGQGTQVTVSS” was “low polyreactivity”.

Regarding “QFQLVESGGGLVQAGGSLRLSCAASGFTFDGYAMGWYRQAPGKERELVAAISDSGDSTYYADSVKGRFTISRDNAKITVYLQMNSLKPEDTAVYYCAAGLGYYWSDYFAYDYWGQGTQVTVSS”, the “polyreactivity (PSR sort gate)” value is “low polyreactivity”. The value for “QFQLVESGGGLVQAGGSLRLSCAASGFTFPYNGMGWYRQAPGKERELVAAISYGGGGKYYADSVKGRFTISRDNAKNTVYLQMNSLKPEDTAVYYCATDDPLSQINEQGMDYWGQGTQVTVSS” was “low polyreactivity”; that for “QFQLVESGGGLVQAGGSLRLSCAASGGTLYIYAMGWYRKAPGKERELVAAIRGRGGSTYADSVKGRFTISRDNAKNTVYLQMNSLKPVDTAVYYCAAYARQRSNTIYYDYWGQGTQVTVSS” was “high polyreactivity”. The result for “QFQLVESGGGLVQAGGSLRLSCAASGIFVGYTMGWYRQAPGKEREFVAAIRWTDGSTYYADSVKGRFTISRDNAKNTVYLQMNSLKPEDTAVYYCAADSHDPARYYYGDEVEDEYWGQGTQVTVSS” reads “low polyreactivity”; that for “QFQLVESGGGLVQAGGSLRLSCAASGIIFGAYVMGWYRQAPGKERELVAVISWSSTSTYYADSVKGRFTISRDNAKNTVYLQMNSLKPEDTAVYYCNARYLRRGDYWGQGTQVTVSS”, “low polyreactivity”; that for “QFQLVESGGGLVQAGGSLRLSCAASGIIFTTYVMGWYRQAPGKERELVAAISRGGRTYYADSVKGRFTSSRDNAKNTVYLQMNSLKPEDTAVYYCARVAYKGYGEDDYWGQGTQVTVSS”, “high polyreactivity”. The result for “QFQLVESGGGLVQAGGSLRLSCAASGIIFVSYAMGGYIQAPGKETEFVAGINWNGGSTYYADSVKGRFTISRDNAKNTVYLQMNSLKPEDTAVYYCNAENYRVRQRSSVKYDYWGHGTQVTVSS” reads “low polyreactivity”; that for “QFQLVESGGGLVQAGGSLRLSCAASGITFQYYAMGWYRQAPGKERDFVAAISWRSGRTYYADSVKGRFTISRDNAKNTVYLQMNSLKPEDTEVYYCAAVVHIQRSTRDYWGQGTQVTVSS”, “high polyreactivity”. Take “QFQLVESGGGLVQAGGSLRLSCAASGLTFKYYGMGWYRQAPGKERELVATISSGGRTNYADSVKGRFTISRDNAKNTVYLQMNSLKPEDTEVYYCNRPRWYGGSPYYYWGQGTQVTVSS”: the “polyreactivity (PSR sort gate)” value is “high polyreactivity”.

For “QFQLVESGGGLVQAGGSLRLSCAASGRIFFSNAMGWYRQAPGKERELVASITGGDDTNYADSVKGRFTISRDNAKNSVYLQMNSLKPEDTAFYYCAARAIPSYRWVYRFAPKYDYWGQGTQVTVSS”, the “polyreactivity (PSR sort gate)” value is on record as “low polyreactivity”.

For the sequence “QFQLVESGGGLVQAGGSLRLSCAASGRIFRYYSMGCYIQSPGKERELVAAITRGGSTNYADSVKGRFTISGDNANNNVYLQMNSLKPEDSAVYYCAVRGCYTWPTYNYWGHGTQVTVSS”, the “polyreactivity (PSR sort gate)” value is listed as “high polyreactivity”. The result for “QFQLVESGGGLVQAGGSLRLSCAASGRIWWNAKGWYRQAPGNEREMVAAIRWSGGIKRYADSVKGRFTISRDNAKNTVYLQMNSLKREDTAVYYCDARLGGSIRSKFDYWGQGTQVTVSS” reads “high polyreactivity”; that for “QFQLVESGGGLVQAGGSLRLSCAASGRTFWWYAMGWYRQAPGKERELVAAITSRGTTYYADSVKGRFTISRDNAKNTVYLQMNSLKPEDTAVYYCNAVQATRYTDYDYWGQGTQVTVSS”, “high polyreactivity”.

As to “QFQLVESGGGLVQAGGSLRLSCAASGSIFKYNAMGWYRQAPGKEREFVAAISSSSGNTYYADSVKGRFTISRDNAKNTLYFQMNSLKPEDTAVYYCAADASRPRIPEMYYWGQGTQVTVSS”, the “polyreactivity (PSR sort gate)” value is given as “high polyreactivity”.

“QFQLVESGGGLVQAGGSLRLSCAASGSIFLAYDMGWYRQAPGKERELVAGITSGGTTYYADSVKGRFTISRDNAKNTVYLQMNSLKPADTAVYYCAALLYTPYYYWGQGTQVTVSS”: the “polyreactivity (PSR sort gate)” value is “low polyreactivity”.

As to “QFQLVESGGGLVQAGGSLRLSCAASGSIFRGYTMGWYRQAPGKERELVAAISWSGGSTYYADSVKGRFTISRDNAKNTVYLQMNSLKPEDTAVYFCAAGDYYHRIFLWYDYWGQGTQVTVSS”, the “polyreactivity (PSR sort gate)” value is on record as “low polyreactivity”. The result for “QFQLVESGGGLVQAGGSLRLSCAASGSIFYTYVMGWYRQAPGKERELVAVISWSSTSTYYADSVKGRFTISRDNAKNTVYLQMNSLKPEDTAVYYCAAGVHRYRPGHGYDDGGYYWGQGTQVTVSS” reads “low polyreactivity”; that for “QFQLVESGGGLVQAGGSLRLSCAASGSILESNVMGWYRQAPGKERELVASISSSGVSTYADSVKGRFTISRDNAKNTVYLQMNSLKPEDNAVYYCAADRWYWTYALYYWGQGTQVTVSS”, “low polyreactivity”. The value for “QFQLVESGGGLVQAGGSLRLSCAASGSTFLSNAMGWYRQAPGKERELVAGIDYNDGSTYYADSVKGRFTISRDNAKNTVYLKMNRLKPADTAVYYCAARWVFRRYVICMDFWGQGTEVTVSS” was “low polyreactivity”; that for “QFQLVESGGGLVQAGGSLRLSCAASGSTFQWYAMGWYRQAPGKERELVAAINKSGGTTYYADSVKGRFTISRDNAKNTVYLQMNSLKPEDTAVYYCATDNPVVYQPGNMDYWGQGTQVTVSS” was “low polyreactivity”; that for “QFQLVESGGGLVQAGGSLRLSCAASGSTFRIYTMGWYRQAPGKHRELVAGISSSGNTNYADSVKGRFTISRDNAKNTVYLQMYSLKPEDTAVYYCAAVQPAWGNGYWGQGTQVTVSS” was “high polyreactivity”. The result for “QFQLVESGGGLVQAGGSLRLSCAASGSTFRTYAMGWYRQAPRKERELVADITWRGGSKYYADSVKGRFTISRDNAKNTVYSQMNSLKPEDPAVYYCATDRGPEVVLYDYWGQGTQVTVSS” reads “low polyreactivity”. For the sequence “QFQLVESGGGLVQAGGSLRLSCAASGSTFTPNVMGWYRQAPGKERELVAAINSSGGSTFYADSVKGRFTISRDNAKNTVYLQMNSLNPEDTAVYYCAASWHTPTVYDEYYYWGQGTQVTVSS”, the “polyreactivity (PSR sort gate)” value was “low polyreactivity”. The result for “QFQLVESGGGLVQAGGSLRLSCAASGSTFTQNTMGWYRQAPGKERELVAAISRRGGGTYYADSVKGRFTISRDNAKNTVYLQMNSLKPEDTAVYYCNAPYILTQQGGRRYDYWGQGTQVTVSS” reads “high polyreactivity”; that for “QFQLVESGGGLVQAGGSLRLSCAASGSTFYANAMGLYRQAPGKERELVAAISYSGGSTYYADSVKGRFTISRDNAKNTVYLQMNSLKPEDTAVYYCAATNGKKTPKVYYWGQGTQVTVSS”, “low polyreactivity”. The result for “QFQLVESGGGLVQAGGSLRLSCAASGYTFAVNTMGWYRQAPGKESELVAAITLGGGSTYYADSVKGRFTISRDNAKNTVYLQMNSLKPEDTAVYYCATDPVDYRGWWRGYKYDYWGQGTQVTVSS” reads “low polyreactivity”; that for “QFQLVESGGGLVQAGGSLRLSCAPSGFIISSNAMGGYRQAPGKERELVAAISARGGSTYYADSVKRRFTISRDNAKNTVYLQMNSLKPEDTAVYYCNTDYKTTGDYWGEGTQVTVSS”, “high polyreactivity”. The result for “QFQLVESGGGLVQAGGSLRLSCASSGGTFGNNDMGWYRQAPGKESELVAAIRSAGTTYYADSVKGRFTISRDNAKNTVYLQMNSLKPEDTAVYYCNADTTGYWSYGFQYYGEDYWGQGTQVTVSS” reads “low polyreactivity”. As to “QFQLVESGGGLVQAGGSLRLSCASSGRTFGYNTMGWYRQAPGKERELVAAINYSGGSTYYADSVKGRFTISRDNAKNTVYLQMNSLKPEDTAVYYCNAKPRWYVPYDYWGQGTQVTVSS”, the “polyreactivity (PSR sort gate)” value is given as “high polyreactivity”. The result for “QFQLVESGGGLVQAGGSLRLSCASYGFTFEYNAMGGYRQSPGKESEFVATISWSGGSTYYADSVKGRFTFSRDKAKNTVYLQMNSLKPEDTAVYYCNAEVFFPSTYGMDYWGQGTQVTVSS” reads “low polyreactivity”; that for “QFQLVESGGGLVQAGGSLRLSCPPSGSIFPGYAMGWSRQSPGKERELVATITWSGGSTYYADSVKGRFTISRDNAKNTVYLQLTSLKPEDTAVYYCNADTNWYYQLNYYGLYDYWGQGTQVTVSS”, “low polyreactivity”. For the sequence “QFQLVESGGGLVQAGGSLRLSCSSSGSIFGAYDMGWYRQAPGKERELVAAITSVGSTYYADSVKGRFTISRDNAKNTVYLQMNSLKPEDTAVYDCAKRQWRPTYRYGYWGQGTQVTVSW”, the “polyreactivity (PSR sort gate)” value is recorded as “low polyreactivity”.

Turning to “QFQLVESGGGLVQAGGSLRLSGAASGRTFRIYAMGWYRQAPGKDRELVAAITRSSGSTYYADSVKGRFTISRDNAKNTVYLQMNSLKPEDTAVYYCAAEALFEPIYDYWGQGTQVTVSS”, the “polyreactivity (PSR sort gate)” value is on record as “high polyreactivity”. The result for “QFQLVESGGGLVQAGPSLLLSFAASGNTLHVYAMGRYRQAPGKERELVAAITSDVSTYYADSVKGRFTISRDNAKNTVYLQMHSLKPEDTAVYYFATTGYGSYLIYWGQGTQVTVSS” reads “low polyreactivity”; that for “QFQLVESGGGLVQEGGSLRLSCAASGFTFYYYTMGWYRQAPGKERELVAAITWRGGSTNYADSVKGRFTISRDNAKNTVYLQMNSLKPEDTAVYYCAAVTYWFWPGMDYWGQGTQVTVSS”, “low polyreactivity”; that for “QFQLVESGGGVVQAGGSLRLSCAASGSIIYVNAMGWYRQAPGKERELVAAINYSGDSTYYADSVKGRFTISRDNAKNTVYLQMNSLKPEDTAVYYCAADIYVYYAPVYQYYWYDSWGQGTQVTVSS”, “high polyreactivity”.

The values above are taken from the nanobody polyreactivity screen of Harvey et al. (2022).
